Laboratory results as given in article PMC2062912.

Molecular target: recombinant avidin (hen) (UniProt P02701)
Test: SEC + other: electrophoresis; purified renatured rec-AV alone; conditions not given; details referred to Shin et al, 1997

stoichiometry N: 4
Substance: recombinant avidin (from UniProt P02701 25-152) (natural protein)
